Test results as given in IntAct's records for PubMed 20346719.

B1: Flagellar brake protein YcgR (Escherichia coli (strain K12)), P76010 (parent)
chain: MSHYHEQFLKQNPLAVLGVLRDLHKAAIPLRLSWNGGQLISKLLAITPDKLVLDFGSQAEDNIAVLKAQHITITAETQGAKVEFTVEQLQQSEYLQLPAFITVPPPTLWFVQRRRYFRISAPLHPPYFCQTKLADNSTLRFRLYDLSLGGMGALLETAKPAELQEGMRFAQIEVNMGQWGVFHFDAQLISISERKVIDGKNETITTPRLSFRFLNVSPTVERQLQRIIFSLEREAREKADKVRD
partner: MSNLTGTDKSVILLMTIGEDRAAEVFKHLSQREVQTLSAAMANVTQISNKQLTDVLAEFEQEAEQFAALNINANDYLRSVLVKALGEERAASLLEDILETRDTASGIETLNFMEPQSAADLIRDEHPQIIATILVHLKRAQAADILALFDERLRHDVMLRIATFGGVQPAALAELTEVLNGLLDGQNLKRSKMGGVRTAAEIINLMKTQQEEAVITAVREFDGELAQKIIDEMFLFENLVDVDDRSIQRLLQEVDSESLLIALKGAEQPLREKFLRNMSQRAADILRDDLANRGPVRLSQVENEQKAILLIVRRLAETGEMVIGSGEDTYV
B2: Flagellar brake protein YcgR (Escherichia coli (strain K12)), P76010 (parent)
chain: B1 chain
partner: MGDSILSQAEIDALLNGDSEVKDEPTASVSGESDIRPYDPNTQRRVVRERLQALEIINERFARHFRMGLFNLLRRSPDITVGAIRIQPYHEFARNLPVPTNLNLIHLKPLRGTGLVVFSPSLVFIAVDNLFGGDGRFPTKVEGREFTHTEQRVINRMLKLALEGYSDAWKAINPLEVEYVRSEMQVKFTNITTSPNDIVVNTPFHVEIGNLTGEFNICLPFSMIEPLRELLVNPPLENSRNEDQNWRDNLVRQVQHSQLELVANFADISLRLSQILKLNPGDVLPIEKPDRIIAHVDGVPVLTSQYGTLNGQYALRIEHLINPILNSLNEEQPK

Variants of: B1
Conditions: with flig_ecoli fliG

effect of a mutation on the interaction	Variant
decreasing interaction	N62W
decreasing interaction	K81D

Variants of: B2
Conditions: with flim_ecoli fliM

effect of a mutation on the interaction	Variant
disrupting interaction	Q223P
disrupting interaction	I227W
